Assay results from patent US20260242478A1 (published 2026).
Where no end group is shown, it is not given here.

B1: Phage-2066 (peptide)
peptide: VSIMCKPMWMCSGT
notes: tested as crude clonal phage supernatant
B2: Phage-2069 (peptide)
peptide: YDHWCTPMWMCHGM
notes: as for B1
B3: Phage-2057 (peptide)
peptide: VEKWCTPPWMCSLF
notes: as for B1
B4: Phage-2065 (peptide)
peptide: AAKMCVPWWMCEVM
notes: as for B1
B5: Phage-2063 (peptide)
peptide: PIKLCTPSWMCIGF
notes: as for B1
B6: Phage-2071 (peptide)
peptide: IGPWCIPPWMCDHR
notes: as for B1
B7: Phage-2058 (peptide)
peptide: AWKSCIPSWMCEVQ
notes: as for B1
B8: Phage-2060 (peptide)
peptide: EHIWCKPDWMCSGF
notes: as for B1
B9: Phage-2062 (peptide)
peptide: EGKWCTPIWMCQGF
notes: as for B1
B10: Phage-2067 (peptide)
peptide: PVKWCIPSWMCSVD
notes: as for B1
B11: Phage-2064 (peptide)
peptide: YLHSCTPAWMCTGF
notes: as for B1
B12: Phage-2068 (peptide)
peptide: SEKWCIPDWMCQVW
notes: as for B1
B13: Phage-2059 (peptide)
peptide: DTMRCVPEWMCTGF
notes: as for B1
B14: Phage-2061 (peptide)
peptide: EMKWCIPAWMCQSH
notes: as for B1
B15: Phage-2070 (peptide)
peptide: FEMWCTPSWMCDGF
notes: as for B1
B16: Phage-2039 (peptide)
peptide: DLPWCIPAWMCMGL
B17: Phage-2041 (peptide)
peptide: QMKWCTPEWMCVGM
B18: Phage-2040 (peptide)
peptide: VHKWCIPSWMCEAP
B19: Phage-2050 (peptide)
peptide: EAIWCVPKWMCEGM
notes: tested as clonal phage supernatant
B20: Phage-2053 (peptide)
peptide: VVHWCIPEWMCERI
notes: as for B19
B21: Phage-2047 (peptide)
peptide: VDHWCTPAWMCDGF
notes: as for B19
B22: Phage-2045 (peptide)
peptide: IDKWCIPMWMCEMS
notes: as for B19
B23: Phage-2048 (peptide)
peptide: VAKWCTPPWMCAWL
modifications: cysteine pairing not given here; also: fused to phage pIII, pIII sequence and linker not given here
notes: as for B19
B24: Phage-2044 (peptide)
peptide: EVKWCTPEWMCAFL
modifications: cysteine pairing not given here; also: fused to phage pIII, pIII sequence and linker not given here
notes: as for B19
B25: Phage-2049 (peptide)
peptide: VMPWCIPQWMCVGE
notes: as for B19
B26: Phage-2055 (peptide)
peptide: APKLCIPNWMCVSM
notes: as for B19
B27: Phage-2043 (peptide)
peptide: VPKWCTPSWMCEST
notes: as for B19
B28: Phage-2056 (peptide)
peptide: WLNWCTPEWMCNGF
notes: as for B19
B29: Phage-2052 (peptide)
peptide: FPQWCIPIWMCEHT
notes: as for B19
B30: Phage-2051 (peptide)
peptide: VPKWCTPAWMCNWN
notes: as for B19
B31: Phage-2054 (peptide)
peptide: VDKWCIPQWMCDDQ
notes: as for B19
B32: Phage-2046 (peptide)
peptide: EVHRCIPAWMCTTP
notes: as for B19
B33: Phage-2042 (peptide)
peptide: MDHWCTPPWMCEGW
notes: as for B19
B34: Phage-2073 (peptide-180 library clone, SEQ ID NO: 2389) (peptide)
peptide: VAKMCIPSWMCAEQ
modifications: cysteine pairing not given here; also: fused to phage pIII, pIII sequence and linker not given here
notes: Tested as clonal phage supernatant; not shown: pIII filament protein of the bacteriophage to which the peptide is fused for display
B35: Phage-2072 (peptide-180 library clone, SEQ ID NO: 2388) (peptide)
peptide: QGNWCKPAWMCSGF
modifications: cysteine pairing not given here; also: fused to phage pIII, pIII sequence and linker not given here
notes: as for B34

target: T1, Anti-PSMA Fab (SEQ ID NOs: 19, 20); test: phage ELISA on captured PSMA Fab, wells pre-incubated with the competitor PSMA antigen
T1 construct: Biotinylated PSMA Fab captured on neutravidin coated plates in the phage ELISA; also called 006 PSMA Fab
Experimental: (§1) Clonal phage were harvested as crude supernatants and screened via standard ELISAs. […] Prior to the addition of clonal phage. wells were incubated with blocking buffer and PSMA antigen or blocking buffer alone. Without washing or aspirating, clonal phage supernatants were then added to the wells and incubated for a short time. Wells were then washed followed by detection of bound phage using a horse radish conjugated anti-M13 antibody.

Row | Binder | Anti-PSMA Fab signal in the presence of PSMA (phage binding ELISA)
1 | B1 | 0.072
2 | B2 | 0.0688
3 | B3 | 0.1
4 | B4 | 0.0753
5 | B5 | 0.107
6 | B6 | 0.0893
7 | B7 | 0.0942
8 | B8 | 0.0871
9 | B9 | 0.143
10 | B10 | 0.0738
11 | B11 | 0.0668
12 | B12 | 0.0929
13 | B13 | 0.066
14 | B14 | 0.0858
15 | B15 | 0.0932

target: T1, Anti-PSMA Fab (SEQ ID NOs: 19, 20); test: phage ELISA; biotinylated PSMA Fab on neutravidin plate, bound phage detected with anti-M13-HRP;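 note: crude clonal phage supernatants added, without a wash, to wells pretreated with PSMA antigen in blocking buffer or with blocking buffer only, then briefly incubated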
Experimental: as §1

Row | Binder | Anti-PSMA Fab signal (phage binding ELISA)
16 | B1 | 1.77
17 | B2 | 1.76
18 | B3 | 1.77
19 | B4 | 1.77
20 | B5 | 1.77
21 | B6 | 1.76
22 | B7 | 1.77
23 | B8 | 1.77
24 | B9 | 1.77
25 | B10 | 1.76
26 | B11 | 1.77
27 | B12 | 1.76
28 | B13 | 1.77
29 | B14 | 1.77
30 | B15 | 1.76

target: T2, Anti-PSMA Fab (SEQ ID NOs: 19, 20); test: phage binding ELISA; biotinylated PSMA Fab on neutravidin plate, bound phage detected with anti-M13-HRP
T2 construct: Biotinylated and captured on neutravidin coated plates in the phage ELISA; also called 006 PSMA Fab
Experimental: as §1

Row | Binder | Anti-PSMA Fab (SEQ ID NOs: 19, 20) signal
31 | B16 | 1.8
32 | B17 | 1.79
33 | B18 | 1.79

target: T3, Anti-PSMA Fab (SEQ ID NOs: 19, 20); test: phage binding ELISA; Fab-coated wells pre-incubated with PSMA antigen as competitor, anti-M13 HRP detection
T3 construct: Biotinylated and captured on neutravidin coated plates in the phage ELISA; also called 006 PSMA Fab
Experimental: as §1

Row | Binder | Anti-PSMA Fab signal in the presence of PSMA
34 | B19 | 0.0786
35 | B20 | 0.098
36 | B21 | 0.106
37 | B22 | 0.0708
38 | B23 | 0.197
39 | B24 | 0.0578
40 | B25 | 0.0873
41 | B26 | 0.0746
42 | B27 | 0.0787
43 | B28 | 0.147
44 | B29 | 0.065
45 | B30 | 0.12
46 | B31 | 0.116
47 | B32 | 0.0934
48 | B33 | 0.0642

target: T4, Anti-PSMA Fab (SEQ ID NOs: 19, 20); test: phage binding ELISA; PSMA Fab on plate pre-incubated with PSMA antigen as competitor, anti-M13 HRP detection;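 note: crude clonal phage supernatants added without washing to wells preincubated with PSMA in blocking buffer, compared with wells receiving blocking buffer only, then bound phage detected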
T4 construct: In the phage ELISA the PSMA Fab was biotinylated and captured on neutravidin coated plates; also called 006 PSMA Fab
Experimental: as §1

Row | Binder | Anti-PSMA Fab signal in the presence of PSMA
49 | B34 | 0.0548
50 | B35 | 0.0983

target: T2, Anti-PSMA Fab (SEQ ID NOs: 19, 20); test: phage binding ELISA; PSMA Fab on plate pre-incubated with PSMA antigen as competitor, anti-M13-HRP detection
Experimental: as §1

Row | Binder | Anti-PSMA Fab signal in the presence of PSMA
51 | B16 | 0.0665
52 | B17 | 0.0767
53 | B18 | 0.0914

target: T4, Anti-PSMA Fab (SEQ ID NOs: 19, 20); test: phage binding ELISA; biotinylated PSMA Fab on neutravidin plate, clonal phage supernatant, anti-M13 HRP detection;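 note: wells were preincubated with blocking buffer either containing PSMA antigen or without it before crude phage supernatant was added, briefly incubated, then washed prior to detection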
Experimental: as §1

Row | Binder | Anti-PSMA Fab (SEQ ID NOs: 19, 20) signal
54 | B34 | 1.76
55 | B35 | 1.76

target: T3, Anti-PSMA Fab (SEQ ID NOs: 19, 20); test: phage binding ELISA; biotinylated PSMA Fab on neutravidin plates, clonal phage supernatant, anti-M13 HRP detection
Experimental: as §1

Row | Binder | Anti-PSMA Fab signal
56 | B19 | 1.78
57 | B20 | 1.78
58 | B21 | 1.78
59 | B22 | 1.79
60 | B23 | 1.78
61 | B24 | 1.79
62 | B25 | 1.78
63 | B26 | 1.77
64 | B27 | 1.79
65 | B28 | 1.77
66 | B29 | 1.78
67 | B30 | 1.78
68 | B31 | 1.77
69 | B32 | 1.79
70 | B33 | 1.79
